From patent US20240263160A1 (BIOMARIN PHARMACEUTICAL, published 2024) come the findings set out here.

The target in this assay is IGF2 receptor (cation-independent mannose-6-phosphate receptor). Kind of assay: IGF2 receptor binding assay; average over the BMN001 lots used in the nonclinical studies; format and competitor not described.

In general, IC50 refers to the concentration that gives 50% inhibition. Read a low IC50 as greater potency.

B1: BMN001 therapeutic fusion protein (mature human Naglu fused through a rigid linker to a furin-resistant IGF-II peptide, amino acids 8-67 of mature human IGF-II … (enzyme)
chain: DEAREAAAVRALVARLLGPGPAADFSVSVERALAAKPGLDTYSLGGGGAARVRVRGSTGVAAAAGLHRYLRDFCGCHVAWSGSQLRLPRPLPAVPGELTEATPNRYRYYQNVCTQSYSFVWWDWARWEREIDWMALNGINLALAWSGQEAIWQRVYLALGLTQAEINEFFTGPAFLAWGRMGNLHTWDGPLPPSWHIKQLYLQHRVLDQMRSFGMTPVLPAFAGHVPEAVTRVFPQVNVTKMGSWGHFNCSYSCSFLLAPEDPIFPIIGSLFLRELIKEFGTDHIYGADTFNEMQPPSSEPSYLAAATTAVYEAMTAVDTEAVWLLQGWLFQHQPQFWGPAQIRAVLGAVPRGRLLVLDLFAESQPVYTRTASFQGQPFIWCMLHNFGGNHGLFGALEAVNGGPEAARLFPNSTMVGTGMAPEGISQNEVVYSLMAELGWRKDPVPDLAAWVTSFAARRYGVSHPDAGAAWRLLLRSVYNCSGEACRGHNRSPLVRRPSLQMNTSIWYNRSDVFEAWRLLLTSAPSLATSPAFRYDLLDLTRQAVQELVSLYYEEARSAYLSKELASLLRAGGVLAYELLPALDEVLASDSRFLLGSWLEQARAAAVSEAEADFYEQNSRYQLTLWGPEGNILDYANKQLAGLVANYYTPRWRLFLEALVDSVAQGIPFQQHQFDKNVFQLEQAFVLSKQRYPSQPRGDTVDLAKKIFLKYYPRWVAGSWGAPGGGSPAPAPTPAPAPTPAPAGGGPSGAPLCGGELVDTLQFVCGDRGFYFSRPASRVSARSRGIVEECCFRSCDLALLETYCATPAKSE
notes: also called Naglu/IGF-II fusion protein
Molecule B1 had an IC50 of 0.28 nM.
